The target in experiment [1] is T1, recombinant human GPC3 (full-length extracellular domain) (human, UniProt P51654 25-559).
T1 construct: extracellular domain; Bought protein coated on ELISA plates; also called human GPC3 protein
Briefly: ELISA, GPC3 coated at 50 ng per well, anti-FLAG-HRP detection. The procedure: The hexahistidine-tagged 1A1 Fab and 6A4 Fab were expressed in E. coli strain HB2151 and purified from the soluble fraction of periplasm by using the Ni-NTA resin. Then ELISA was performed by using standard protocols to measure binding affinity to recombinant human GPC3 (full-length extracellular domain). Briefly, the recombinant human GPC3 (ACROBiosystems) was coated on Corning EIA/RIA high-binding 96-well plates (Corning Inc.) at 50 ng per well overnight at 4° C. and blocked with 3% nonfat milk in PBS (pH7.4). Fivefold serially diluted antibodies were added and incubated at room temperature for 2 h. The plates were washed with PBS containing 0.05% Tween 20. Bound antibodies were detected by HRP-conjugated anti-FLAG tag antibody (Sino Biological). The assay was developed at room temperature with TMB substrate (Solarbio) and OD value was measured at 450 nm with a microplate reader.
Background: An ELISA detects its analyte on a solid surface through an enzyme-linked reagent.

A further experiment has as its target T2, recombinant mouse GPC3 (mouse, UniProt Q8CFZ4 25-558, limits assumed).
T2 construct: Bought protein; also called mouse GPC3 protein
Description: ELISA, GPC3 coated, biotinylated antibody, streptavidin-HRP detection. The procedure: (§1) ELISA was performed according to standard protocols, to determine binding affinity of anti-GPC3 1A1 mAb to recombinant GPC3 from human, cynomolgus, and mouse and anti-GPC3 6A4 mAb to recombinant human GPC3. Briefly, recombinant GPC3 (AcroBiosystems) was coated on Corning EIA/RIA high-binding 96-well plates (Corning Inc.) at 50 ng per well overnight at 4° C. and blocked with 3% nonfat milk in PBS (pH7.4). Fivefold serially diluted biotinylated antibodies were added and incubated at room temperature for 2 h. The plates were washed with PBS containing 0.05% Tween 20. Bound antibodies were detected by HRP-conjugated streptavidin (Sino Biological). The assay was developed at room temperature with TMB substrate (Solarbio) and monitored at 450 nm with a microplate reader. The half-maximal binding (EC₅₀) was calculated by fitting the data to the Langmuir adsorption isotherm.

Experiment [2] has as its target T3, recombinant cynomolgus GPC3 (cynomolgus, UniProt A0A2K5VK50 24-558).
T3 construct: Bought protein; also called cynomolgus GPC3 protein
The description is as above. The procedure: as §1

Experiment [3] addresses T1, recombinant human GPC3 (full-length …). The description is as above. Here is the method:
as §1

This note sets out measurements from US20240368303A1 (ZHEJIANG SHIMAI PHARMACEUTICAL, published 2024).

T2 sequence (Q8CFZ4 25-558 limits assumed): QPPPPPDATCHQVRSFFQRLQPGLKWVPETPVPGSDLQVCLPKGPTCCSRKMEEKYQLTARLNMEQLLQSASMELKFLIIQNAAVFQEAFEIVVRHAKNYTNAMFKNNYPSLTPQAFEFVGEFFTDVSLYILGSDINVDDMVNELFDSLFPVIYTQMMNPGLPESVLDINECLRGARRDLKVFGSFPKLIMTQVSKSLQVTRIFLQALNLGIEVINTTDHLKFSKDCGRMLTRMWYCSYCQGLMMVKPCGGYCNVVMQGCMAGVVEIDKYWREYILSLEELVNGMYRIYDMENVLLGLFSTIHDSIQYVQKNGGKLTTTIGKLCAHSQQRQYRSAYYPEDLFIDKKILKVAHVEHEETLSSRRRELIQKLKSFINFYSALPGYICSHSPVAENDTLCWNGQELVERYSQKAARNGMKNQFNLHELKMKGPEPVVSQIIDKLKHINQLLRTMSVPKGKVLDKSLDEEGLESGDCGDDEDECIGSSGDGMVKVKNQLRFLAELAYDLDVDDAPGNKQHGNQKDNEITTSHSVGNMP

B1: 1A1 Fab (Fab, V domains shown)
VH: EVQLVQSGAEVKKPGASVKVSCKASGYTFTSYGISWVRQAPGQGLEWMGWISAYNGNTNYAQKLQGRVTMTTDTSTSTAYMELRSLRSDDTAVYYCARAGTPTQILRYFDWLSQPFDYWGQGTLVTVSS
VL: EIVLTQSPLSLPVTLGQPASISCRSSQSLVYSDGNTYLNWFHQRPGQSPRRLIYKVSNRDSGVPERFSGSGSGTDFTLKISRVEAEDVGVYYCMQSTHWPLTFGGGTKVEIK
notes: Human Fab from a phage library, kappa light chain, hexahistidine-tagged, made in E. coli HB2151, detected with anti-FLAG antibody; also called Fab clone 1A1; anti-GPC3 1A1 Fab
Take B1: the EC50 (in general, the concentration needed to bring the measured effect to its halfway point) in experiment [1] is roughly 190 nM.

B2: anti-GPC3 1A1 mAb (antibody, human IgG1, kappa, V domains shown)
VH: EVQLVQSGAEVKKPGASVKVSCKASGYTFTSYGISWVRQAPGQGLEWMGWISAYNGNTNYAQKLQGRVTMTTDTSTSTAYMELRSLRSDDTAVYYCARAGTPTQILRYFDWLSQPFDYWGQGTLVTVSS
VL: EIVLTQSPLSLPVTLGQPASISCRSSQSLVYSDGNTYLNWFHQRPGQSPRRLIYKVSNRDSGVPERFSGSGSGTDFTLKISRVEAEDVGVYYCMQSTHWPLTFGGGTKVEIKR
notes: Intact human IgG1 kappa, about 150 kDa on non-reducing SDS-PAGE
Turning to B2, the EC50 with recombinant mouse GPC3 amounted to 1.12 nM; in experiment [2], 0.58 nM; in experiment [3], 0.6 nM.

B3: 6A4 Fab (Fab, V domains shown)
VH: EVQLVQSGAEVKKPGASVKVSCKASGYTFTSYAMHWVRQAPGQRLEWMGWINAGNGNTKYSQKFQGRVTITRDTSTSTAYMELRSLRSDDTAVYYCARDPSHWGQGTLVTVSS
VL: not shown
notes: Human Fab from a phage library, kappa light chain, hexahistidine-tagged, made in E. coli HB2151, detected with anti-FLAG antibody; also called Fab clone 6A4
As for B3, the EC50 in experiment [1] is roughly 234 nM.

B4: anti-GPC3 6A4 mAb (antibody, V domains shown)
VH: EVQLVQSGAEVKKPGASVKVSCKASGYTFTSYAMHWVRQAPGQRLEWMGWINAGNGNTKYSQKFQGRVTITRDTSTSTAYMELRSLRSDDTAVYYCARDPSHWGQGTLVTVSS
VL: not shown
notes: Intact human IgG1 kappa
As to B4, the concentration giving a half-maximal response (EC50) in experiment [3] was determined as 4.5 nM.
